Measured values as given in PMC2248580.

B1: Non-pancreatic secreted human group IIA phospholipase A2 (enzyme)
chain: NLVNFHRMIKLTTGKEAALSYGFYGCHCGVGGRGSPKDATDRCCVTHDCCYKRLEKRGCGTKFLSYKFSNSGSRITCAKQDSCRSQLCECDKAAATCFARNKTTYNKKYQYYSNKHCRGSTPRC
B2: isoform A of ammodytoxin from Vipera ammodytes ammodytes venom (enzyme)
chain: SLLEFGMMILGETGKNPLTSYSFYGCYCGVGGKGTPKDATDRCCFVHDCCYGNLPDCSPKTDRYKYHRENGAIVCGKGTSCENRICECDRAAAICFRKNLKTYNYIYRNYPDFLCKKESEKC

Target: human activated blood coagulation factor X (FXa) (human)
Test: SPR; […]; 37°C; HBS (10 mM Hepes, 150 mM NaCl, 5 mM CaCl2, 0.005% P20, pH 7.4); Langmuir fit; […]

Chain of human activated blood coagulation factor X (FXa) (human) (P00742 whole entry): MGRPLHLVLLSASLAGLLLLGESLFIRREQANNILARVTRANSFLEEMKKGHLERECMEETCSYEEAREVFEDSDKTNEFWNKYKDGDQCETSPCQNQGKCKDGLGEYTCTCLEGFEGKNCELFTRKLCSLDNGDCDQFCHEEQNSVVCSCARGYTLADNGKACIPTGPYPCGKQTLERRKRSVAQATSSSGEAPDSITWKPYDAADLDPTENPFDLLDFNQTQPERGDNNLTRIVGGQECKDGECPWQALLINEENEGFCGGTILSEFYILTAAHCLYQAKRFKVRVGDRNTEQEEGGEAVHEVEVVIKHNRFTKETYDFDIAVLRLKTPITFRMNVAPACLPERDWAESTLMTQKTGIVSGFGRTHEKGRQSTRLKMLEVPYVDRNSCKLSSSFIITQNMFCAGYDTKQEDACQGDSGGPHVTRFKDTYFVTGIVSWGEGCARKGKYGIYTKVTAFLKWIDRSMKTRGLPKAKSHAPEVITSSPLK

| Binder | Kd [nM] | koff [s⁻¹] | kon [M⁻¹ s⁻¹] |
| --- | --- | --- | --- |
| B1 | 14 | 0.029 | 2e+06 |
| B2 | 30 | 0.007 | 220000 |
